Consider eleven proteins from patent US20100015650.

This data set has as its target T1, BRB1 tyrosine kinase substrate peptide.
T1 chain: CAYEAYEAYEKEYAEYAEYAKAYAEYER

B1: FMS (CSFR) (protein)
chain: KYKQKPKYQVRWKIIESYEGNSYTFIDPTQLPYNEKWEFPRNNLQFGKTLGAGAFGKVVEATAFGLGKEDAVLKVAVKMLKSTAHADEKEALMSELKIMSHLGQHENIVNLLGACTHGGPVLVITEYCCYGDLLNFLRRKAEAMLGPSLSPGQDPEGGVDYKNIHLEKKYVRRDSGFSSQGVDTYVEMRPVSTSSNDSFSEQDLDKEDGRPLELRDLLHFSSQVAQGMAFLASKNCIHRDVAARNVLLTNGHVAKIGDFGLARDIMNDSNYIVKGNARLPVKWMAPESIFDCVYTVQSDVWSYGILLWEIFSLGLNPYPGILVNSKFYKLVKDGYQMAQPAFAPKNIYSIMQACWALEPTHRPTFQQICSFLQEQAQEDRRERDYTNLPSSSRSGGSGSSSSELEEESSSEHLTCCEQGDIAQPLLQPNNYQFC
In the case of B1, the Signal to Noise ratio with BRB1 Peptide (TR-FRET kinase assay; kinase 0.25 nM) was 3.

B2: FLT4 (protein)
chain: MRRPAHADIKTGYLSIIMDPGEVPLEEQCEYLSYDASQWEFPRERLHLGRVLGYGAFGKVVEASAFGIHKGSSCDTVAVKMLKEGATASEHRALMSELKILIHIGNHLNVVNLLGACTKPQGPLMVIVEFCKYGNLSNFLRAKRDAFSPCAEKSPEQRGRFRAMVELARLDRRRPGSSDRVLFARFSKTEGGARRASPDQEAEDLWLSPLTMEDLVCYSFQVARGMEFLASRKCIHRDLAARNILLSESDVVKICDFGLARDIYKDPDYVRKGSARLPLKWMAPESIFDKVYTTQSDVWSFGVLLWEIFSLGASPYPGVQINEEFCQRLRDGTRMRAPELATPAIRRIMLNCWSGDPKARPAFSELVEILGDLLQGRGLQEEEEVCMAPRSSQSSEEGSFSQVSTMALHIAQADAEDSPPSLQRHSLAARYYNWVSFPGCLARGAETRGSSRMKTFEEFPMTPTTYKGSVDNQTDSGMVLASEEFEQIESRHRQESGFS
Regarding B2, the Signal to Noise ratio with BRB1 Peptide (TR-FRET kinase assay; kinase 0.25 nM) was 20.

B3: BMX (protein)
chain: MDTKSILEELLLKRSQQKKKMSPNNYKERLFVLTKTNLSYYEYDKMKRGSRKGSIEIKKIRCVEKVNLEEQTPVERQYPFQIVYKDGLLYVYASNEESRSQWLKALQKEIRGNPHLLVKYHSGFFVDGKFLCCQQSCKAAPGCTLWEAYANLHTAVNEEKHRVPTFPDRVLKIPRAVPVLKMDAPSSSTTLAQYDNESKKNYGSQPPSSSTSLAQYDSNSKKIYGSQPNFNMQYIPREDFPDWWQVRKLKSSSSSEDVASSNQKERNVNHTTSKISWEFPESSSSEEEENLDDYDWFAGNISRSQSEQLLRQKGKEGAFMVRNSSQVGMYTVSLFSKAVNDKKGTVKHYHVHTNAENKLYLAENYCFDSIPKLIHYHQHNSAGMITRLRHPVSTKANKVPDSVSLGNGIWELKREEITLLKELGSGQFGVVQLGKWKGQYDVAVKMIKEGSMSEDEFFQEAQTMMKLSHPKLVKFYGVCSKEYPIYIVTEYISNGCLLNYLRSHGKGLEPSQLLEMCYDVCEGMAFLESHQFIHRDLAARNCLVDRDLCVKVSDFGMTRYVLDDQYVSSVGTKFPVKWSAPEVFHYFKYSSKSDVWAFGILMWEVFSLGKQPYDLYDNSQVVLKVSQGHRLYRPHLASDTIYQIMYSCWHELPEKRPTFQQLLSSIEPLREKDKH
B3: the Signal to Noise ratio with BRB1 Peptide (TR-FRET kinase assay; kinase 0.5 nM) amounted to 7.1.

B4: FLT1 (protein)
chain: RKMKRSSSEIKTDYLSIIMDPDEVPLDEQCERLPYDASKWEFARERLKLGKSLGRGAFGKVVQASAFGIKKSPTCRTVAVKMLKEGATASEYKALMTELKILTHIGHHLNVVNLLGACTKQGGPLMVIVEYCKYGNLSNYLKSKRDLFFLNKDAALHMEPKKEKMEPGLEQGKKPRLDSVTSSESFASSGFQEDKSLSDVEEEEDSDGFYKEPITMEDLISYSFQVARGMEFLSSRKCIHRDLAARNILLSENNVVKICDFGLARDIYKNPDYVRKGDTRLPLKWMAPESIFDKIYSTKSDVWSYGVLLWEIFSLGGSPYPGVQMDEDFCSRLREGMRMRAPEYSTPEIYQIMLDCWHRDPKERPRFAELVEKLGDLLQANVQQDGKDYIPINAILTGNSGFTYSTPAFSEDFFKESISAPKFNSGSSDDVRYVNAFKFMSLERIKTFEELLPNATSMFDDYQGDSSTLLASPMLKRFTWTDSKPKASLKIDLRVTSKSKESGLSDVSRPSFCHSSCGHVSEGKRRFTYDHAELERKIACCSPPPDYNSVVLYSTPPI
Take B4: the Signal to Noise ratio with BRB1 Peptide (TR-FRET kinase assay; kinase 0.25 nM) was 4.1.

B5: KIT (protein)
chain: TYKYLQKPMYEVQWKVVEEINGNNYVYIDPTQLPYDHKWEFPRNRLSFGKTLGAGAFGKVVEATAYGLIKSDAAMTVAVKMLKPSAHLTEREALMSELKVLSYLGNHMNIVNLLGACTIGGPTLVITEYCCYGDLLNFLRRKRDSFICSKQEDHAEAALYKNLLHSKESSCSDSTNEYMDMKPGVSYVVPTKADKRRSVRIGSYIERDVTPAIMEDDELALDLEDLLSFSYQVAKGMAFLASKNCIHRDLAARNILLTHGRITKICDFGLARDIKNDSNYVVKGNARLPVKWMAPESIFNCVYTFESDVWSYGIFLWELFSLGSSPYPGMPVDSKFYKMIKEGFRMLSPEHAPAEMYDIMKTCWDADPLKRPTFKQIVQLIEKQISESTNHIYSNLANCSPNRQKPVVDHSVRINSVGSTASSSQPLLVHDDV
Consider B5, for which the Signal to Noise ratio with BRB1 Peptide (TR-FRET kinase assay; kinase 2 nM) was 1.5.

B6: LTK (protein)
chain: KQKKWQGLQEMRLPSPELELSKLRTSAIRTAPNPYYCQVGLGPAQSWPLPPGVTEVSPANVTLLRALGHGAFGEVYEGLVIGLPGDSSPLQVAIKTLPELCSPQDELDFLMEALIISKFRHQNIVRCVGLSLRATPRLILLELMSGGDMKSFLRHSRPHLGQPSPLVMRDLLQLAQDIAQGCHYLEENHFIHRDIAARNCLLSCAGPSRVAKIGDFGMARDIYRASYYRRGDRALLPVKWMPPEAFLEGIFTSKTDSWSFGVLLWEIFSLGYMPYPGRTNQEVLDFVVGGGRMDPPRGCPGPVYRIMTQCWQHEPELRPSFASILERLQYCTQDPDVLNSLLPMELGPTPEEEGTSGLGNRSLECLRPPQPQELSPEKLKSWGGSPLGPWLSSGLKPLKSRGLQPQNLWNPTYRS
For B6, the Signal to Noise Ratio with BRB1 Peptide (TR-FRET kinase assay; kinase 1 nM) amounted to 13.7.

B7: MER (protein)
chain: KRVQETKFGNAFTEEDSELVVNYIAKKSFCRRAIELTLHSLGVSEELQNKLEDVVIDRNLLILGKILGEGEFGSVMEGNLKQEDGTSLKVAVKTMKLDNSSQREIEEFLSEAACMKDFSHPNVIRLLGVCIEMSSQGIPKPMVILPFMKYGDLHTYLLYSRLETGPKHIPLQTLLKFMVDIALGMEYLSNRNFLHRDLAARNCMLRDDMTVCVADFGLSKKIYSGDYYRQGRIAKMPVKWIAIESLADRVYTSKSDVWAFGVTMWEIATRGMTPYPGVQNHEMYDYLLHGHRLKQPEDCLDELYEIMYSCWRTDPLDRPTFSVLRLQLEKLLESLPDVRNQADVIYVNTQLLESSEGLAQGSTLAPLDLNIDPDSIIASCTPRAAISVVTAEVHDSKPHEGRYILNGGSEEWEDLTSAPSAAVTAEKNSVLPGERLVRNGVSWSHSSMLPLGSSLPDELLFADDSSEGSEVLM
As for B7, the Signal to Noise ratio with BRB1 Peptide (TR-FRET kinase assay; kinase 0.25 nM) was 12.9.

B8: IRR (protein)
chain: YGKKRNRTLYASVNPEYFSASDMYVPDEWEVPREQISIIRELGQGSFGMVYEGLARGLEAGEESTPVALKTVNELASPRECIEFLKEASVMKAFKCHHVVRLLGVVSQGQPTLVIMELMTRGDLKSHLRSLRPEAENNPGLPQPALGEMIQMAGEIADGMAYLAANKFVHRDLAARNCMVSQDFTVKIGDFGMTRDVYETDYYRKGGKGLLPVRWMAPESLKDGIFTTHSDVWSFGVVLWEIVTLAEQPYQGLSNEQVLKFVMDGGVLEELEGCPLQLQELMSRCWQPNPRLRPSFTHILDSIQEELRPSFRLLSFYYSPECRGARGSLPTTDAEPDSSPTPRDCSPQNGGPGH
On to B8, for which the Signal to Noise ratio with BRB1 Peptide (TR-FRET kinase assay; kinase 0.5 nM) is 19.2.

B9: IGF1R (protein)
chain: RKRNNSRLGNGVLYASVNPEYFSAADVYVPDEWEVAREKITMSRELGQGSFGMVYEGVAKGVVKDEPETRVAIKTVNEAASMRERIEFLNEASVMKEFNCHHVVRLLGVVSQGQPTLVIMELMTRGDLKSYLRSLRPEMENNPVLAPPSLSKMIQMAGEIADGMAYLNANKFVHRDLAARNCMVAEDFTVKIGDFGMTRDIYETDYYRKGGKGLLPVRWMSPESLKDGVFTTYSDVWSFGVVLWEIATLAEQPYQGLSNEQVLRFVMEGGLLDKPDNCPDMLFELMRMCWQYNPKMRPSFLEIISSIKEEMEPGFREVSFYYSEENKLPEPEELDLEPENMESVPLDPSASSSSLPLPDRHSGHKAENGPGPGVLVLRASFDERQPYAHMNGGRKNERALPLPQSSTC
As for B9, the Signal to Noise ratio with BRB1 Peptide (TR-FRET kinase assay; kinase 0.25 nM) worked out at 25.1.

B10: FLT3 (protein)
chain: HKYKKQFRYESQLQMVQVTGSSDNEYFYVDFREYEYDLKWEFPRENLEFGKVLGSGAFGKVMNATAYGISKTGVSIQVAVKMLKEKADSSEREALMSELKMMTQLGSHENIVNLLGACTLSGPIYLIFEYCCYGDLLNYLRSKREKFHRTWTEIFKEHNFSFYPTFQSHPNSSMPGSREVQIHPDSDQISGLHGNSFHSEDEIEYENQKRLEEEEDLNVLTFEDLLCFAYQVAKGMEFLEFKSCVHRDLAARNVLVTHGKVVKICDFGLARDIMSDSNYVVRGNARLPVKWMAPESLFEGIYTIKSDVWSYGILLWEIFSLGVNPYPGIPVDANFYKLIQNGFKMDQPFYATEEIYIIMQSCWAFDSRKRPSFPNLTSFLGCQLADAEEAMYQNVDGRVSECPHTYQNRRPFSREMDLGLLSPQAQVEDS
With B10, the Signal to Noise ratio with BRB1 Peptide (TR-FRET kinase assay; kinase 0.1 nM) was determined as 25.9.

B11: HER4 (ERBB4) (protein)
chain: RRKSIKKKRALRRFLETELVEPLTPSGTAPNQAQLRILKETELKRVKVLGSGAFGTVYKGIWVPEGETVKIPVAIKILNETTGPKANVEFMDEALIMASMDHPHLVRLLGVCLSPTIQLVTQLMPHGCLLEYVHEHKDNIGSQLLLNWCVQIAKGMMYLEERRLVHRDLAARNVLVKSPNHVKITDFGLARLLEGDEKEYNADGGKMPIKWMALECIHYRKFTHQSDVWSYGVTIWELMTFGGKPYDGIPTREIPDLLEKGERLPQPPICTIDVYMVMVKCWMIDADSRPKFKELAAEFSRMARDPQRYLVIQGDDRMKLPSPNDSKFFQNLLDEEDLEDMMDAEEYLVPQAFNIPPPIYTSRARIDSNRSEIGHSPPPAYTPMSGNQFVYRDGGFAAEQGVSVPYRAPTSTIPEAPVAQGATAEIFDDSCCNGTLRKPVAPHVQEDSSTQRYSADPTVFAPERSPRGELDEEGYMTPMRDKPKQEYLNPVEENPFVSRRKNGDLQALDNPEYHNASNGPPKAEDEYVNEPLYLNTFANTLGKAEYLKNNILSMPEKAKKAFDNPDYWNHSLPPRSTLQHPDYLQEYSTKYFYKQNGRIRPIVAENPEYLSEFSLKPGTVLPPPPYRHRNTVV
For the protein B11, the Signal to Noise ratio with BRB1 Peptide (TR-FRET kinase assay; kinase 0.1 nM) came to 3.1.
